Laboratory results reported in patent US20190127447A1 (Ablynx, published 2019).

Molecular target: RSV F protein of the hRSV Memphis 37 strain (human respiratory syncytial virus …)
Test: cell-based or functional assay

B1: SEQ ID NO: 71 (VHH)
chain: DVQLVESGGGLVQAGGSLSISCAASGGSLSNYVLGWFRQAPGKEREFVAAINWRGDITIGPPNVEGRFTISRDNAKNTGYLQMNSLAPDDTAVYYCGAGTPLNPGAYIYDWSYDYWGRGTQVTVSSGGGGSGGGGSGGGGSEVQLVESGGGLVQAGGSLSISCAASGGSLSNYVLGWFRQAPGKEREFVAAINWRGDITIGPPNVEGRFTISRDNAKNTGYLQMNSLAPDDTAVYYCGAGTPLNPGAYIYDWSYDYWGRGTQVTVSSGGGGSGGGGSGGGGSEVQLVESGGGLVQAGGSLSISCAASGGSLSNYVLGWFRQAPGKEREFVAAINWRGDITIGPPNVEGRFTISRDNAKNTGYLQMNSLAPDDTAVYYCGAGTPLNPGAYIYDWSYDYWGRGTQVTVSS
sensitivity in in vitro neutralization assays relative to RSV-B 18537: 6 fold
